These results are taken from PMC6224390.

In the assay the target is BG505 SOSIP trimer (HIV-1 (BG505)) (UniProt Q2N0S6). Briefly: SEC-MALS. In general terms: In gel filtration, larger molecules generally elute earlier.

One may read the stoichiometry N as a count of units in the complex or per binding partner. For the substance “BG505 SOSIP trimer (from UniProt Q2N0S6 1-860; Q2N0S6 1-860) (complex)”, the stoichiometry N was found to be 3.
